Results taken from the supplement of paper PMC9170038.

How the values were obtained:
MS2 coat protein [1] = assay: apparent KD of MS2 coat protein, switch ON state; designed switch direction (-1 OFF switch, 1 ON switch): -1; higher = weaker reporter binding; conditions: FMN input: 0 or 200 uM; Eterna round: R93 (includes R88 designs)
Procedure, shortened: (§1)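 In 100 mM Tris-HCl pH 7.5 with 80 mM KCl and 4 mM MgCl2, and without or with constant ligand, SNAP-549-labelled MS2 coat protein was titrated in twofold steps from 0.7 or 1.5 nM to 3 µM. Per-step times went from 0.8–1.5 h down to 10–20 min. The RNA switches were transcribed on-chip from Illumina sequencing clusters, and apparent KD is the per-design median of normalised cluster binding-curve fits.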

MS2 coat protein [2] = assay: apparent KD of MS2 coat protein, switch OFF state (with FMN for OFF switches, without FMN for ON switches); designed switch direction (-1 OFF switch, 1 ON switch): -1; higher = weaker reporter binding; conditions: FMN input: 0 or 200 uM; Eterna round: R93 (includes R88 designs)
Procedure, shortened: as §1

MS2 coat protein [3] = assay: apparent KD of MS2 coat protein; designed switch direction (-1 OFF switch, 1 ON switch): 1; higher = weaker reporter binding
Procedure, shortened: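 Normalised cluster fluorescence was curve-fitted, and each design's median over clusters is its apparent KD. Before this, SNAP-549-labelled MS2 coat protein was titrated from 0.7 or 1.5 nM, doubling to 3 µM, over RNA switches transcribed on Illumina chips by stalled E. coli RNA polymerase. Titrations had no input, 200 uM small-molecule ligand, or an oligonucleotide input, and steps lasted 0.8–1.5 h (lowest) to 10–20 min (highest).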

[4] = Eterna round: R95, input ligand: FMN 200 uM
[5] = Eterna round: R95, input ligand: microRNA oligo, concentration not stated
[6] = Eterna round: R95, input ligand: none
[7] = input ligand: microRNA oligo, concentration not stated

Row | Sequence | apparent KD of MS2 coat protein (MS2 coat protein [1]) [nM] | apparent KD of MS2 coat protein (MS2 coat protein [2]) [nM] | apparent KD of MS2 coat protein (MS2 coat protein [3]; input ligand: FMN 200 uM) [nM] | apparent KD of MS2 coat protein (MS2 coat protein [3]; [7]) [nM] | apparent KD of MS2 coat protein (MS2 coat protein [3]; input ligand: none) [nM] | other results
1 | AACAUACAUGAGGAUCACCCAUGUCAGGAUAUGCCGGGUUAGAGCCAACUGAAAAAACGUAGAAGGGACGAAAA [Bilbo Confounded 7 - Jieux - Exclusion 1] | 110 | 90.3 |  |  |  | 
2 | AAAACUGGAGGAUAUACGUACAUGUCAAAAGACGUGAAGGGACAUGAGGAUCACCCAUGUAGAAGGCUAGAAAA [JL Stem Breaker 8] | 74.2 | 28.6 |  |  |  | 
3 | AAGAACUGAGGAUAUACUAAAGAAAUGAAAAGAAAGAAAGAACAUGAGGAUCACCCAUGUAGAAGGCAGAAGAA [Ya'ammu Nubwoserre] | 29.9 | 18 |  |  |  | 
4 | AAGGGACAUGAGGAUCACCCAUGUGAGGAUAUGAUGCGAAUAAAGAAAUAAUAAAGCAUCAGAAGGCACACCAA [Mat - Exclusion 1 - Eli mod - D67] | 82.4 | 88.5 |  |  |  | 
5 | GAAAAACAUGAGGAUCACCCAUGUCAGGAUAUCGAAAAAAAUAAAAAAGAAAAGAAAACGAGAAGGGACAAAAG [Mat - Same state - Mayanna Mod - D112] | 31.6 | 47.1 |  |  |  | 
6 | AAAAAGUGAGGAUAUGUCAAAGGUCACGAAAGUGACAAAGGACAGAAGGCACAUGAGGAUCACCCAUGUGAAAA [Fiskers Exclusion 4D1 65% - Early + late G segment 2] | 26.7 | 32.3 |  |  |  | 
7 | AAGAAGGCAGGAUAUACAAAAUAAAAGAAAAGAAAGAAAGAACAUGAGGAUCACCCAUGUAGAAGGGUCAAGAA [Sankhenre Sewadjtu] | 47.9 | 37.2 |  |  |  | 
8 | AAGGUUCGAGGAUAUACAUAGAUACAGAUACAUGUAGACGUACAUGAGGAUCACCCAUGUAGAAGGCGAAUAUA [AJ 25] | 69.7 | 142 |  |  |  | 
9 | AAAAAACAUGAGGAUCACCCAUGUAAGGAUAUGUGAAAAAAAAAAUAAAAAAAAAAAAACAGAAGGUACAAAAA [LROPPY Exclusion 1 - v02_deltaG=3.34] | 45.2 | 47.7 |  |  |  | 
10 | GAAAAACAUGAGGAUCACCCAUGUGAGGAUAUACGAAAGUAGAAGGCACUAAAAGAAAAGAGAAGGAGAAAAGA [Meechl Ex1 R2 m2] | 19.9 | 38.8 |  |  |  | 
11 | CUCUAGUUAGGAUAUCCAAGAAAAGAAAAGAAAGAAAAGAAGGAGAAGGAACAUGAGGAUCACCCAUGUAAGAA [EteRNA is fun!] | 27.8 | 29.4 |  |  |  | 
12 | AGAAACCUAGGAUAUACAUGAGGAUCACCCAUGUAAAGAAAGAAGGGAGCCACAAGAAGUAGAAGGAGGAAGAA [JR_Exc003_Sub005] | 16.9 | 33.4 |  |  |  | 
13 | GAAAAACAUGAGGAUCACCCAUGUCAGGAUAUACAAAAUAAAAUAAAAAUAAAAUAAAGUAGAAGGGACAAAAG [Mat - Same state - Mayanna Mod - D107] | 36.7 | 49 |  |  |  | 
14 | UCUUGGUUUUUGCUCGUUUUUUGUGUUGAACAUGAGGAUCACCCAUGUAUUAUACGGUCCGGUUUAGUAGUGGUCCG [JMF 79] (puzzle: Sensor for hsa-mir-208a) |  |  |  |  |  | apparent KD of MS2 coat protein (MS2 coat protein [3]; [4]): 28.2 nM; apparent KD of MS2 coat protein (MS2 coat protein [3]; [5]): 16 nM; apparent KD of MS2 coat protein (MS2 coat protein [3]; [6]): 31.1 nM
15 | GAGCCAGUCCGAGGAUAUUCGUAGUAACACAUGAGGAUCACCCAUGUGGGCUCAGAAGAGCCCUUGGAGAAGGCGGGCUGGCUC [SS-NG2-LRO19] (Eterna round: R96, puzzle: Same State NG 2) |  |  | 7.41 | 9.15 | 12.4 | 
16 | CCGGCAAGUAUAGGAUAUCCCGCAACAGAAACGGGAGAAGGGUGCCAAACAUGAGGAUCACCCAUGUACACCGGAAAUAAAUAA [Lazaorra] (Eterna round: R96, puzzle: Same State NG 1) |  |  | 54.9 | 56.4 | 46.9 | 
17 | AUAAAACAUGAGGAUCACCCAUGUUAACAAAGUCGAGGAUAUGGGCAAAUAAAAUAAGAACCAGAAGGCGAAUAAU [salish99_ss1_r3_045] (puzzle: Same State 1) |  |  |  |  |  | apparent KD of MS2 coat protein (MS2 coat protein [3]; [4]): 16.8 nM; apparent KD of MS2 coat protein (MS2 coat protein [3]; [5]): 27.9 nM; apparent KD of MS2 coat protein (MS2 coat protein [3]; [6]): 27.7 nM

Row | Sequence | apparent KD of MS2 coat protein (MS2 coat protein [1]) [nM] | apparent KD of MS2 coat protein (MS2 coat protein [2]) [nM] | apparent KD of MS2 coat protein (MS2 coat protein [3]; input ligand: FMN 200 uM) [nM] | apparent KD of MS2 coat protein (MS2 coat protein [3]; [7]) [nM] | apparent KD of MS2 coat protein (MS2 coat protein [3]; input ligand: none) [nM] | other results
18 | AGGCUGAGUCGAGGAUAUUAUGGAUCCUCUAAUACAUGAGGAUCACCCAUGUAAUUAAUUAUACAUGAGAAGGUGACUCAGCCA [SSNG2/12-B3] (Eterna round: R96, puzzle: Same State NG 2) |  |  | 612 | 129 | 280 | 
19 | GAGAGAGGGUGAGGAUAUAGAGUAAUAAUGAUACUAGAAGGCACAGACAUGAGGAUCACCCAUGUGGGAAUAAUCCAGAGAGAG [Parity 5 - Jieux - Same State NG 1] (Eterna round: R96, puzzle: Same State NG 1) |  |  | 300 | 259 | 401 | 
20 | UAUAUUAUGGUAGGAUAUCUAGGAUAUGGGAAGAGCUAAGCUUGGAAGUCACUUCACCCAGAAGGAGAGAAGGACCAUAAUAUU [pwkr ssNG2 2FMN + F9.5] (Eterna round: R96, puzzle: Same State NG 2) |  |  | 105 | 240 | 76.7 | 
21 | AGGAAGGAGACUGAGGAUAUCGUAAGGAGGACAUGAGGAUCACCCAUGUGUAUAGGAUUGGAGGACGAGAAGGCAGAGGAGUGGG [JR_SS2_Sub048] (puzzle: Same State 2) |  |  |  |  |  | apparent KD of MS2 coat protein (MS2 coat protein [3]; [4]): 29.7 nM; apparent KD of MS2 coat protein (MS2 coat protein [3]; [5]): 19.7 nM; apparent KD of MS2 coat protein (MS2 coat protein [3]; [6]): 26.5 nM
22 | CGGCGCUGUCGAGAGGAUAUGCGGUGAUGGACAUGAGGAUCACCCAUGUUAGCGAUAGCAUCACGGUAGAAGGCUCUUACGCCUG [Soteed Omei mod 23] (puzzle: Same State 2) |  |  |  |  |  | apparent KD of MS2 coat protein (MS2 coat protein [3]; [4]): 91.5 nM; apparent KD of MS2 coat protein (MS2 coat protein [3]; [5]): 130 nM; apparent KD of MS2 coat protein (MS2 coat protein [3]; [6]): 205 nM
23 | GGAUGAUAGACAGGAUAUUGAUUGUAAUUAGGUCAAGAAGGGUCAAUGAUUUAAACGACCAGUUACAUGAGGAUCACCCAUGUU [JR_SSNG1_Sub027] (Eterna round: R96, puzzle: Same State NG 1) |  |  | 160 | 208 | 315 | 
24 | GGAGCCGGCACCGAGGAUAUUCAUAUUAAAACAUGAGGAUCACCCAUGUACCGCAGAAGCGGUUGGGAGAAGGCGGAUCGGCUCG [Xeonanis - 23] (Eterna round: R96, puzzle: Same State 2) |  |  | 31.3 | 311 | 534 | 
25 | AGUCCAGCCUGAGCUGGACAAAAGCAUGUACAUGAGGAUCACCCAUGUCAUGUACAAGCUUUUUGCUCGUAAUAAUA [Mat - hsa-mir-208a - Mod of JL - D31] (puzzle: Sensor for hsa-mir-208a) |  |  |  |  |  | apparent KD of MS2 coat protein (MS2 coat protein [3]; [4]): 301 nM; apparent KD of MS2 coat protein (MS2 coat protein [3]; [5]): 12.4 nM; apparent KD of MS2 coat protein (MS2 coat protein [3]; [6]): 477 nM
26 | UGGAUCUAGGCUUGCCUGGGUCCAUGCUGACAUGAGGAUCACCCAUGUGCAUCCUACAAGCUUUUUGCUUGUCAGUU (puzzle: Sensor for hsa-mir-208a) |  |  |  |  |  | apparent KD of MS2 coat protein (MS2 coat protein [3]; [4]): 232 nM; apparent KD of MS2 coat protein (MS2 coat protein [3]; [5]): 166 nM; apparent KD of MS2 coat protein (MS2 coat protein [3]; [6]): 135 nM
27 | CCAUAACGGUGAGGAUAUCGUUGCGAUAAGUGACGAGAAGGCAUUCAUGUGAAAUAAACAUACAUGAGGAUCACCCAUGUUGUA [Omei SS(NG)1 Bv1] (Eterna round: R96, puzzle: Same State NG 1) |  |  | 23.7 | 57.2 | 57.7 | 
28 | AAAAAAAAGUCAGGAUAUGAAUGGAAAGUACAUGAGGAUCACCCAUGUUAUGGAAAAAAAAAACGUUAGAAGGGAUAAAAAAAA [AK SSNG2-V2-1] (Eterna round: R96, puzzle: Same State NG 2) |  |  | 61.3 | 90.2 | 62.3 | 
29 | AGGGAGGAUGCAGGAUAUAUAAGACAUGAGGAUCACCCAUGUACCUCGUGGAGAAGAAAGGAGAGAUAGAAGGGUAGUGAGGAA [Default title] (Eterna round: R96, puzzle: Same State NG 2) |  |  | 285 | 200 | 258 | 
30 | GUGGUCAGACAUGAGGAUCACCCAUGUGGAAUAAAUAAGGACAAGGAUAUGGAAUAUAGGAUAUACCAGAAGGUGUGGUUGGUG (Eterna round: R96, puzzle: Same State NG 3) |  |  |  | 67.5 |  | 
31 | UGUUGUAUUACAGGAUAUCUAUUAUUUUUAUGUAGAGAAGGGUAUUCACAUGAGGAUCACCCAUGUAUAUACGAGGAAGUUGUG [JMF's solution 29] (Eterna round: R96, puzzle: Same State NG 1) |  |  |  | 32.9 |  | 
32 | GUGGUCAGACAUGAGGAUCACCCAUGUGGAAUAAAUAAGGAGAAGGAUAUGGAAUAUAGGAUAUACCAGAAGGUUUGGUUGGUG (Eterna round: R96, puzzle: Same State NG 3) |  |  |  | 90.5 |  | 
33 | AGGGCCGCGGCACAGGAUAUGCACAGGUUCACAUGAGGAUCACCCAUGUGCUCUAGAUAGCUUGAGCAGAAGGGUGUCAUGGUAA [Beadi] (puzzle: Same State 2) |  |  |  |  |  | apparent KD of MS2 coat protein (MS2 coat protein [3]; [4]): 16.3 nM; apparent KD of MS2 coat protein (MS2 coat protein [3]; [5]): 18.2 nM; apparent KD of MS2 coat protein (MS2 coat protein [3]; [6]): 27.9 nM
